# Assay results: patent US20250042957A1 (Molecular Partners, published 2025)
# Where a chain is given by its changes, count along the chain named.
# T1: CD3-specific binding domain (SEQ ID NO: 3) (biotinylated when used as immobilized SPR ligand (site not stated))
# T1 construct: also called α-CD3 DARPin
# T1 chain: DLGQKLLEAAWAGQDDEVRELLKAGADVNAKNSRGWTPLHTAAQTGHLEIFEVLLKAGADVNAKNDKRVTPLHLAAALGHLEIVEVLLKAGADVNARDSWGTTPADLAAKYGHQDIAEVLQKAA
# T2: 2-in-1 DARPin 21 (SEQ ID NO: 90)
# T2 chain: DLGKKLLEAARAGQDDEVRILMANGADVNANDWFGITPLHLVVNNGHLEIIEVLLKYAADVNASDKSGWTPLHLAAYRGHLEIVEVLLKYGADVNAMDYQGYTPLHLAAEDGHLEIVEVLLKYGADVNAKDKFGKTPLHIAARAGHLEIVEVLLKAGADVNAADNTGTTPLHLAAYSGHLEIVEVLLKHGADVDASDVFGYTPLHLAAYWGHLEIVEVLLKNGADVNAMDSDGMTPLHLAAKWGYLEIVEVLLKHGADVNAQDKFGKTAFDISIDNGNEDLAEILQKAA
# T3: 2-in-1 DARPin 22 (SEQ ID NO: 91)
# T3 chain: T2 chain with K135R, A144N
# T4: Switchdrug DARPin 18-3
# T4 construct: also called 2-in-1 DARPin18 in Format 3
# T4 chain: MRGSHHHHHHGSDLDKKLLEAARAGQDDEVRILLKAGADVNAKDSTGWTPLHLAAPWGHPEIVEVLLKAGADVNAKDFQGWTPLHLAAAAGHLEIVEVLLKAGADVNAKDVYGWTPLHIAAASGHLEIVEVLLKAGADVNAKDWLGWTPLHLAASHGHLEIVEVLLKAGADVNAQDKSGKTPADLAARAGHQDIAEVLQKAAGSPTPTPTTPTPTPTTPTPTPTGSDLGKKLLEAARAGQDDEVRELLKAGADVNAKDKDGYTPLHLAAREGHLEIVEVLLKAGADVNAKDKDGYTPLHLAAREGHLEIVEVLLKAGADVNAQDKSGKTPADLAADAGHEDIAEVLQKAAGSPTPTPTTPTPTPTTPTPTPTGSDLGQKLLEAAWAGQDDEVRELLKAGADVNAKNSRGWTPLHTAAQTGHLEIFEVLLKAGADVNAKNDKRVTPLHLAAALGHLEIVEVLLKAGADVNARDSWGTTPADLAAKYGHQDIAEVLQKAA
# T5: Switchdrug DARPin 17-1
# T5 construct: also called 2-in-1 DARPin17 in Format 1
# T5 chain: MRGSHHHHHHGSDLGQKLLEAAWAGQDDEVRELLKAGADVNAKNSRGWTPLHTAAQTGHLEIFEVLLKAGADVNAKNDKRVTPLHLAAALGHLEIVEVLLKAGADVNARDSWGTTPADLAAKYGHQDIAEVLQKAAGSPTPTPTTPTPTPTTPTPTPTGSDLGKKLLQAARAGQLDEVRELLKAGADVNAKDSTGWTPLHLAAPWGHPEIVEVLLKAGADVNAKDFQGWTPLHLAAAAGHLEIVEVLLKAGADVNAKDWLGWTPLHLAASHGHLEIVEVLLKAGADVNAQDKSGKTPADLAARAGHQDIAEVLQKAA
# T6: Switchdrug DARPin 17-3
# T6 construct: also called 2-in-1 DARPin17 in Format 3
# T6 chain: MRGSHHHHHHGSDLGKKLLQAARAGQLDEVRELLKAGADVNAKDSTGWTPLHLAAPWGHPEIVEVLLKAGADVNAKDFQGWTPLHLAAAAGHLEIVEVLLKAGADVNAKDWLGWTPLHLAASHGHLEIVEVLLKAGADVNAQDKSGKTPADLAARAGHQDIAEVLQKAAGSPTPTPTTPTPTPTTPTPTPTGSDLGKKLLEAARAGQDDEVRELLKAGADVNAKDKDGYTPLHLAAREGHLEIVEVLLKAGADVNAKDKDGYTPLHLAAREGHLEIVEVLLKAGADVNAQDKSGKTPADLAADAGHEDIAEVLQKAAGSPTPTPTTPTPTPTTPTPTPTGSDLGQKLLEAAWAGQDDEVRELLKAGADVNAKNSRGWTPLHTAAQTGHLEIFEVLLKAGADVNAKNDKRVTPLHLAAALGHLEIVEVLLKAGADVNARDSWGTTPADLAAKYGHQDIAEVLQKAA
# T7: Switchdrug DARPin 15-3
# T7 construct: also called 2-in-1 DARPin15 in Format 3
# T7 chain: T6 chain with G15D, Q20E, L27D, E32I
# T8: scCD3εγ
# T8 chain 1: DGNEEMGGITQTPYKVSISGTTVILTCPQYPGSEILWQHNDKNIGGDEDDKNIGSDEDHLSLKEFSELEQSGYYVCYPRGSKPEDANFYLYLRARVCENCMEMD
# T8 chain 2: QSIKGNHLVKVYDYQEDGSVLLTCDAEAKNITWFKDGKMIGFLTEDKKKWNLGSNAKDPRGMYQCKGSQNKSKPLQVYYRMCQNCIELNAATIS
# B1: α-CD3 DARPin-blocker (SEQ ID NO: 2) (designed binder)
# chain: DLGKKLLQAARAGQLDEVRELLKAGADVNAKDAKGLTPLHLAAYHGHLEIVEVLLKAGADVNAKDVYGWTPLHIAAASGHLEIVEVLLKAGADVNAKDWLGWTPLHLAASHGHLEIVEVLLKAGADVNAQDKSGKTPADLAARAGHQDIAEVLQKAA
# B2: Aminoglycoside phosphotransferase (APH) (enzyme)
# chain: MRGSHHHHHHGSAKMRISPELKKLIEKYRSVKDTEGMSPAKVYKLVGENENLYLKMTDSRYKGTTYDVEREKDMMLWLEGKLPVPKVLHFERHDGWSNLLMSEADGVLCSEEYEDEQSPEKIIELYAECIRLFHSIDISDCPYTNSLDSRLAELDYLLNNDLADVDSENWEEDTPFKDPRELYDFLKTEKPEEELVFSHGDLGDSNIFVKDGKVSGFIDLGRSGRADKWYDIAFCVRSIREDIGEEQYVELFFDLLGIKPDWEKIKYYILLDELF
# B3: VEGF165 (ligand, UniProt P15692-4 27-191, looked up)
# chain: APMAEGGGQNHHEVVKFMDVYQRSYCHPIETLVDIFQEYPDEIEYIFKPSCVPLMRCGGCCNDEGLECVPTEESNITMQIMRIKPHQGQHIGEMSFLQHNKCECRPKKDRARQENPCGPCSERRKHLFVQDPQTCKCSCKNTDSRCKARQLELNERTCRCDKPRR
# modifications: biotinylated in the ELISA of Example 4 (site not stated)
# notes: also called biotinylated VEGF165; soluble VEGF
# B4: Switchdrug DARPin 17-B (designed binder)
# chain: MRGSHHHHHHGSDLGKKLLQAARAGQLDEVRELLKAGADVNAKDSTGWTPLHLAAPWGHPEIVEVLLKAGADVNAKDFQGWTPLHLAAAAGHLEIVEVLLKAGADVNAKDWLGWTPLHLAASHGHLEIVEVLLKAGADVNAQDKSGKTPADLAARAGHQDIAEVLQKAAGSPTPTPTTPTPTPTTPTPTPTGSDLGKKLLQAARAGQLDEVRELLKAGADVNAKDQYGRTPLHLAAIKGHLEIVEVLLKAGADVNAKDSLGYTPLHLAAVEGPLEIVEVLLKAGADVNAKDAYGQTPLHIAAAWGHLEIVEVLLKAVADVNAQDKSGKTPADLAARAGHQDIAEVLQKAAGSPTPTPTTPTPTPTTPTPTPTGSDLGQKLLEAAWAGQDDEVRELLKAGADVNAKNSRGWTPLHTAAQTGHLEIFEVLLKAGADVNAKNDKRVTPLHLAAALGHLEIVEVLLKAGADVNARDSWGTTPADLAAKYGHQDIAEVLQKAA
# notes: also called 2-in-1 DARPin17 in Format B
# What was measured:
# VEGF165 [1] = molecular target: B3; assay: SPR (ProteOn), VEGF165 immobilized, multi-trace
# [2] = molecular target: T1, CD3-specific binding domain (SEQ ID NO: …); assay: SPR (ProteOn), biotinylated CD3-specific binding domain immobilized, multi-trace 50-0.195 nM, 25 C
# [3] = molecular target: T2, 2-in-1 DARPin 21 (SEQ ID NO: 90)
# [4] = molecular target: T3, 2-in-1 DARPin 22 (SEQ ID NO: 91)
# Switchdrug DARPin 18-3 [5] = molecular target: T4, Switchdrug DARPin 18-3; assay: ELISA: 100 nM Switchdrug DARPin 18-3 pre-incubated with titrated soluble VEGF; read-out is the construct bound to plate-bound biotinylated scCD3εγ (release of the α-CD3 binder)
# Description: (§1) Switchdrug DARPins that were mixed with VEGF were titrated and pre-incubated for 1 day with VEGF in order to establish the thermodynamic equilibrium. These samples were loaded on the ELISA plate, incubated and washed, before the bound Switchdrug DARPins were detected as described above.
# Switchdrug DARPin 17-1 = molecular target: T5, Switchdrug DARPin 17-1; assay: ELISA: 10 nM Switchdrug DARPin 17-1 pre-incubated with titrated soluble VEGF; read-out is the construct bound to plate-bound biotinylated scCD3εγ (release of the α-CD3 binder)
# Description: as §1
# Switchdrug DARPin 17-3 [6] = molecular target: T6, Switchdrug DARPin 17-3; assay: ELISA: 10 nM Switchdrug DARPin 17-3 pre-incubated with titrated soluble VEGF; read-out is the construct bound to plate-bound biotinylated scCD3εγ (release of the α-CD3 binder)
# Description: as §1
# Switchdrug DARPin 17-3 [7] = molecular target: T6, Switchdrug DARPin 17-3; assay: HTRF: 20 nM Switchdrug DARPin with titrated soluble VEGF; read-out is the construct's binding to 1 nM biotinylated scCD3εγ (release of the α-CD3 binder)
# Description: (§2) Said Switchdrug DARPins (20 nM final concentration) were mixed with 1 nM (final concentration) scCD3εγ, 1:200 (final concentration) of anti-FLAG-d2 HTRF antibody-FRET acceptor conjugate (Cisbio) and 1:200 (final concentration) of anti-strep-Tb antibody FRET donor conjugate (Cisbio, France). […] The mix was added to a well of a 384-well plate and incubated for 90 minutes.
# Switchdrug DARPin 15-3 = molecular target: T7, Switchdrug DARPin 15-3; assay: as above
# Description: as §2
# Switchdrug DARPin 18-3 [8] = molecular target: T4, Switchdrug DARPin 18-3; assay: as above
# Description: as §2
# VEGF165 [9] = molecular target: B3; assay: ELISA: plate-bound biotinylated VEGF165, His-tagged construct titrated, no soluble VEGF, anti-His-HRP detection
# Description: Then a titration of the Switchdrug DARPins was applied, incubated and washed. Detection of bound his-tagged constructs was done by anti-RGS(his)4 mAb HRP conjugate, and detected by TMB substrate.
# scCD3εγ [10] = molecular target: T8, scCD3εγ; assay: ELISA: plate-bound biotinylated scCD3εγ, His-tagged construct titrated in presence of 100 nM soluble VEGF
# Description: (§3) The difference in binding of Switchdrug DARPins to scCD3εγ in presence and absence of VEGF was assessed. […] Said Switchdrug DARPins were mixed with a constant concentration of VEGF (100 nM) and tested for binding to scCD3εγ. […] The difference in EC50 of a construct in presence and absence of VEGF can be referred to as the “activation window”.
# as §1
# VEGF165 [11] = molecular target: B3; assay: cell-based or functional assay
# scCD3εγ [12] = molecular target: T8, scCD3εγ; assay: ELISA, biotinylated scCD3εγ on neutravidin plate, with against without 100 nM VEGF
# Description: as §3, §1
binder,measurement,setting,value
B1,binding result,VEGF165 [1],no binding (tested: 50 nM (highest concentration run))
same,Kd,[2],0.11 nM
same,koff,[2],8.92e-05 s⁻¹
same,kon,[2],826000 M⁻¹ s⁻¹
B2,IC50,[3],55 nM
same,IC50,[4],47 nM
B3,EC50 (read off the curve),Switchdrug DARPin 18-3 [5],~40 nM
same,EC50 (read off the curve),Switchdrug DARPin 17-1,~4 nM
same,EC50 (read off the curve),Switchdrug DARPin 17-3 [6],~7 nM
same,EC50 (read off the curve),Switchdrug DARPin 17-3 [7],~30 nM
same,EC50 (read off the curve),Switchdrug DARPin 15-3,~30 nM
same,EC50 (read off the curve),Switchdrug DARPin 18-3 [8],~70 nM
B4,EC50 (read off the curve),VEGF165 [9],~30 nM
same,EC50 (read off the curve),scCD3εγ [10],~2 nM
same,"T-cell activation (CD69+ cells of CD8+ T cells, Molm-13 target cells): activation window",VEGF165 [11],75 fold
same,activation window (difference in EC50 in presence and absence of VEGF),scCD3εγ [12],~178 fold
